Results: patent publication US20260055188A1

Target: Human-TNFR2-His (manufacturer: SINO, CAT: 10417-H08H) (human) (UniProt P20333)
Test: flow cytometry, bridging: CHOK1-18.2 cells (human Claudin18.2) + 150 nM isotype control + human TNFR2-His, anti-His FITC detection; irrelevant antibody (blank 13476)

E1 Mean FITC-A: 14400
Substance: Human IgG1 kappa Isotype control (Sino Biological, Cat. No.: HG1K) (antibody)
